From patent US20250340659A1 (PETMEDIX, published 2025)
Where a chain is given by its changes, count along the chain named.

T1: recombinant canine OX40L ECD-TNCc-HIS protein (canine)
T1 construct: also called Trimeric OX40L probe (HIS tag); trimeric canine OX40L
T1 chain: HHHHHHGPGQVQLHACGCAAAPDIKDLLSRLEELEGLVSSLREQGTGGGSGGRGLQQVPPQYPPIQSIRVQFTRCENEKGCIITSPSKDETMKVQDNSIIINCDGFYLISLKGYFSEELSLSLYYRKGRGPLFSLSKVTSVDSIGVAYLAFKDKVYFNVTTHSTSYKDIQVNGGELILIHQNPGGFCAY

T2: canine OX40L, full length membrane form, expressed on HEK293 cells (canine)
T2 construct: also called OX40L expressing HEK; HEK OX40L cells
T2 chain: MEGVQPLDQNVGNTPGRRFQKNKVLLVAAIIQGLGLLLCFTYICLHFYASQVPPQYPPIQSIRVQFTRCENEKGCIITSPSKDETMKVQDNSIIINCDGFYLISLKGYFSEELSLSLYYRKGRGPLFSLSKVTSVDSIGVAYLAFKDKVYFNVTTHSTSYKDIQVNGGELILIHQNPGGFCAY

B1: PMX036 (antibody, V domains shown)
VH: EVQLVESGGDLVKPGGSLRLSCVASGFTFSSYHMSWVRQAPGKGLQWVAYITSGGRTTSYADAVKGRFTISRDNAKNTLYLQMNSLRAEDTAVYYCASDLVLVLGGADYWGQGTLVTVSS
VL: SYELTQPPSVNVTLRETAHITCGGDSIGRKYVQWIQQNPGQAPVVIIYKDTNRPTGIPERFSGANSGNTATLTISGALAEDEADYYCQVGDSGTKAVFGGGTHLTVL
notes: also called PMX36
B2: PMX034 (antibody, V domains shown)
VH: B1 VH with S31N, T52V, R56S, T57S, S59T, N84T, V103L, L104V
VL: B1 VL with R29S, T51S
notes: also called PMX34
B3: PMX042 (antibody, V domains shown)
VH: B1 VH with R56S, N84D, E89D, V103L
VL: B1 VL with N38H, T51Y
notes: also called PMX42
B4: PMX045 (antibody, V domains shown)
VH: B1 VH with S35T, R56I, N84S, V93M, S98R, V103L
VL: B1 VL with T51S
notes: also called PMX45
B5: PMX064 (antibody, V domains shown)
VH: B1 VH with R56I, V103I
VL: B1 VL with R15S, T51S
notes: also called PMX64
B6: PMX028 (antibody, V domains shown)
VH: B1 VH with L4M, S31D, R56S, T57S, L104V, A107G, D108V
VL: B1 VL with R29S, T51S, G100E, H103Q
notes: also called PMX28
B7: PMX038 (antibody, V domains shown)
VH: B1 VH with N84K, S98R, D108E
VL: B1 VL with T51S, T94S
notes: also called PMX38
B8: PMX033 (antibody, V domains shown)
VH: B1 VH with N84K, D108E
VL: B1 VL with T51S, T94S
notes: also called PMX33
B9: PMX032 (antibody, V domains shown)
VH: B1 VH with T69I, V103I
VL: B1 VL with T51N, T94S
notes: also called PMX32
B10: PMX057 (antibody, V domains shown)
VH: EVQLVESGGDLVKPEGSLRLSCVVSGFTFNNYGMSWVRQAPGKGLQWVAYISIDGRSTSYTDAVKGRFTISRDNAKNTLYLHINSLRTEDTAVYYCTKLGRGFTFGYWGQGTLVTVSS
VL: SYVLTQLPSKNVTLKQPAHITCGGDNIGSKSVHWYQQKLGQAPALIIYYDSSRPTGIPERFSGANSGNTATLTISGALAEDEADYYCQVWDSSVSVFGGGTHLTVL
notes: also called PMX57
B11: PMX059 (antibody, V domains shown)
VH: EVHLVESGGDLVKPEGSLRLSCVVSGFTFSNYVMNWVRQAPGKGLQWVAFISGDGRSTTYTDAVKSRFTISRDNAKNTLYLQMSSLRTEDTAIYFCAKEKYSSGWSFEYWGQGTLVTVSS
VL: B10 VL with A44V, V94A
notes: also called PMX59
B12: PMX058 (antibody, V domains shown)
VH: B10 VH with G26D, N30G, N31S, I53S, Y80H, H82Q, I83M, T97A, T104A
VL: B10 VL with A44V, S52N, V94A
notes: also called PMX58
B13: PMX063 (antibody, V domains shown)
VH: EVQLVESGGDLVRPGGSLRLSCVASGFTFNNYHMSWVRQAPGKGLQWVAFINSGGSGTTFADVVRGRFTISRDYAKNALYLQMNSLRAEDTAVYYCASGSIWTHFDYWGQGTLVTVSS
VL: SFVLTQLPSVSVTLRQTARITCGGDIIGSKNVYWYQQRLGQAPVLIIYRDNNRPTGIPERFSGASSGNTATLTISGALAEDEADYYCQVWDNSNKAMFGGGTHLTVL
notes: also called PMX63
B14: PMX060 (antibody, V domains shown)
VH: EVQLVESGGDLMKPGGSLRLSCVASGFTFSSFPMSWVRQAPGKGLQWVAYIHSGGSSTSYADAVKGRFTISRDNAKNTLYLQMNSLRAEDTAIYYCARTFPTVAADNWFYYWGQGTLVTVSS
VL: SYVLTQLPSKNVTLKQAAHITCGGDNIGSKSVHWYQQKLGQAPVLIIYYDSSRPTGIPERFSGANSGNTATLTISGALAEDEADYYCQVWDSSAKWVFGEGTQLTVL
notes: also called PMX60
B15: PMX061 (antibody, V domains shown)
VH: B14 VH with M12V, H52N, A63V, E89D, I93V, A105T
VL: B14 VL
notes: also called PMX61

Target: T1, recombinant canine OX40L ECD-TNCc-HIS …
Test: SPR KD1, bivalent analyte model
Protocol: (§1) Affinity (Kd) of OX40L antibodies is measured by SPR, using a recombinant canine OX40L ECD-TNCc-HIS protein (Seq ID 811) as the capturing agent (FIG. 5B).
(§2) Functional affinity is determined using a Biakore 8K (Cytiva). in brief, purified OX40L ECD-TNCc-HIS protein is covalently bound at low density to the surface of a CM5 sensor chip (Cytiva) by amine coupling, using the manufacturer's recommended protocol. Candidate antibodies are subsequently passed across the chip surface at a range of concentrations and affinity determined using the dedicated software (Biacore Insight Evaluation Software). Curves were fitted using a bivalent analyte binding model.

| Kd [nM] | Binder |
| --- | --- |
| 21.6 | B1 |
| 7230 | B2 |
| 274 | B3 |
| 10.4 | B4 |
| 145 | B5 |
| 17 | B6 |
| 100 | B7 |
| 36.4 | B8 |
| 7.2 | B9 |
| 1.29 | B10 |
| 10 | B11 |
| 8.46 | B12 |
| 0.271 | B13 |
| 70.9 | B14 |
| 89.6 | B15 |

Target: T2, canine OX40L, full length membrane …
Test: flow cytometry, OX40L HEK minus WT HEK
Outline: (§3)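 CHO supernatants at 1, 5 or 10 μg/ml in PBS/3% FBS incubated 30′ on ice with cells surface-expressing canine OX40L. Bound antibody detected with fluorescent anti-canine Fc secondary (1:1000, 30 min, dark) and measured by flow cytometry, with parental WT HEK signal subtracted where stated.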

| GEO mean difference | Binder |
| --- | --- |
| 1.28e+06 | B1 |
| 1.36e+06 | B2 |
| 1.48e+06 | B3 |
| 1.44e+06 | B4 |
| 3.42e+06 | B5 |
| 1.02e+06 | B6 |
| 1.53e+06 | B7 |
| 1.43e+06 | B8 |
| 1.42e+06 | B9 |
| 3.29e+06 | B10 |
| 3.11e+06 | B11 |
| 3.31e+06 | B12 |
| 3.15e+06 | B13 |
| 3.07e+06 | B14 |
| 3.26e+06 | B15 |

Target: T1, recombinant canine OX40L ECD-TNCc-HIS …
Test: SPR Koff (kd2)
Protocol: as §1, §2

| koff [s⁻¹] | Binder |
| --- | --- |
| 0.0522 | B1 |
| 0.000252 | B2 |
| 0.00056 | B3 |
| 0.000554 | B4 |
| 0.000921 | B5 |
| 0.000627 | B6 |
| 0.000796 | B7 |
| 0.00101 | B8 |
| 1.71e-05 | B9 |
| 0.22 | B10 |
| 0.00737 | B11 |
| 0.323 | B12 |
| 5.21 | B13 |
| 0.000925 | B14 |
| 0.000729 | B15 |

Target: T1, recombinant canine OX40L ECD-TNCc-HIS …
Test: SPR Koff (kd1)
Protocol: as §1, §2

| koff [s⁻¹] | Binder |
| --- | --- |
| 0.00166 | B1 |
| 0.135 | B2 |
| 0.0292 | B3 |
| 0.00484 | B4 |
| 0.0352 | B5 |
| 0.00935 | B6 |
| 0.0105 | B7 |
| 0.0103 | B8 |
| 0.00586 | B9 |
| 0.00472 | B10 |
| 0.00737 | B11 |
| 0.0144 | B12 |
| 9.05e-05 | B13 |
| 0.00933 | B14 |
| 0.00746 | B15 |

Target: T2, canine OX40L, full length membrane …
Test: cell-based or functional assay

| % Signal Inhibition Average [%] | % Signal Inhibition Rep1 [%] | % Signal Inhibition Rep2 [%] | % Signal Inhibition Rep3 [%] | Binder |
| --- | --- | --- | --- | --- |
| 77.4 | 87.6 | 79.1 | 65.5 | B1 |
| 64.2 | 76.4 | 64.7 | 51.6 | B2 |
| 78.8 | 77.8 | 87.5 | 71 | B3 |
| 75.9 | 79.9 | 81.7 | 66.2 | B4 |
| 91.1 | 88.9 | 94.8 | 89.7 | B5 |
| 66.4 | 61.7 | 75.4 | 62.1 | B6 |
| 68.5 | 79.8 | 75 | 50.8 | B7 |
| 60.3 | 55.8 | 69.8 | 55.4 | B8 |
| 70 | 76.8 | 57.4 | 75.7 | B9 |
| 66 | 52.1 | 72 | 73.9 | B10 |
| 57.8 | 51.1 | 64.3 | 58 | B11 |
| 29.1 | 12.4 | 35.3 | 39.5 | B12 |
| 74.4 | 68.3 | 83 | 72 | B13 |
| 66.1 | 58.9 | 68.4 | 71.1 | B14 |
| 56.1 | 51 | 61.6 | 55.7 | B15 |

Target: T2, canine OX40L, full length membrane …
Test: flow cytometry
Outline: as §3

| GEO mean OX40L expressing HEK | Binder |
| --- | --- |
| 1.31e+06 | B1 |
| 1.39e+06 | B2 |
| 1.51e+06 | B3 |
| 1.47e+06 | B4 |
| 3.45e+06 | B5 |
| 1.05e+06 | B6 |
| 1.56e+06 | B7 |
| 1.46e+06 | B8 |
| 1.45e+06 | B9 |
| 3.32e+06 | B10 |
| 3.14e+06 | B11 |
| 3.34e+06 | B12 |
| 3.18e+06 | B13 |
| 3.1e+06 | B14 |
| 3.29e+06 | B15 |
